In PMC6582535 one finds percent decrease of A-type K+ current (IA) in small-sized mouse DRG neurons data, which are given here for one substance.

In this test the target is Cholecystokinin type B receptor (mouse (endogenous in DRG)) (UniProt P56481).
Chain of UniProt P56481 (P56481 whole entry): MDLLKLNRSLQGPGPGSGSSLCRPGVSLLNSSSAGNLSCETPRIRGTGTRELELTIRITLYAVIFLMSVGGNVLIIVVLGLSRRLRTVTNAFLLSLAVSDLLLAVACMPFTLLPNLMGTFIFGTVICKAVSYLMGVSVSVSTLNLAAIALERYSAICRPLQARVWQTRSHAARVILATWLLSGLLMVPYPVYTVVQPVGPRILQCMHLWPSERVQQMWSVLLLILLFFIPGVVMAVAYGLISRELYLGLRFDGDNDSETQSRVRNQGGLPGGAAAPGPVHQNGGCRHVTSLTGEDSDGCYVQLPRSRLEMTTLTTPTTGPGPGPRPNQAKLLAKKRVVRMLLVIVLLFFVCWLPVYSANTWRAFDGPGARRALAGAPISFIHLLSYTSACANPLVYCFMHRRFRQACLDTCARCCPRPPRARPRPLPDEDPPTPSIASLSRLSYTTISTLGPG

In turn, CCK-4 (peptide) came in with a percent decrease of A-type K+ current (IA) in small-sized mouse DRG neurons at 300 nM CCK-4 of 32.2%.
